Experiment: yeast display, Sf9 membrane polyspecificity reagent, FACS + sequencing; frameworks hold sequencing errors
How it was run: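 A nanobody's polyreactivity label depends on the gate it was sorted from. Yeast display cells were stained with 10% biotinylated, detergent-solubilized Sf9 membrane reagent for 1 hour at 4 °C, enriched on streptavidin microbeads and sorted by FACS. The low and high (top ~1%) gates were set on anti-HA fluorescence for expression and streptavidin fluorescence for reagent binding.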

Sequence	polyreactivity (PSR sort gate)
QFQLVESGGGLVQAGGSLRLSCAASGSTLELNAMGWYIQAPGKERELVAAITSSGGRTYYADSVKGRFTISRDNAKNTVYLQMNSLKPEDTAVYYCAAEPGQHRVVDRYDYWGQGTQVTVSS	low polyreactivity
QFQLVESGGGLVQAGGSLRLSCAASGVIFEWYTMGWYRQAPGKERELVARISSDGSTTYADSVKGRFTLSRDNAKNTVYFEMNSLKREDTAVYYCAADVSYPGLKYIFDYWGQGTLVTVSS	low polyreactivity
QFQLVESGGGLVQAGGSLRLSCAASGYIFLRNAMGCYRQAHGKERELVAAIRLTGGSTYYADSVKGRFTISRDNAKNTVYLQMNSLKPEDTAVYYCAKRSYTGYEYWGQGTQVTVSS	low polyreactivity
QFQLVESGGGLVQAGGSLRLSCAASVSTVVIYDMGWYRQAPGKERELVAAISYSGGSTYYADSVKGRFTITRDNAKNTVYLQMNSLKPEDTAVYYCNAGVLVLLYAYLPSDLEYWGQGTQVTVSS	low polyreactivity
QFQLVESGGGLVQAGGSLRLSCAPSGSTFVSYSMAWYRQEPGKERQFVAAITWSGGSTYYADSVKGRFTISRDNANNTVYLQMNSLKPEDTAVYYCARPYRGSPRYYYWGQGTQVTLSS	high polyreactivity
QFQLVESGGGLVQAGGSLRLSCDASGSIFSYYAMGWYRQAPGKERELVAAISQSGGTTYYADSLKGRFTISRDNEKNTVYLQMNSLKPEDTAVYYCAARAQSSFDTQYYYWGQGTQVTVSS	low polyreactivity
QFQLVESGGGLVQAGGSLRLSCSASGSIFVSNAMGRSRQAPGKERELVAAISSSGDSTYYADSVKGRFTISRDNAKNTFYVQMNSLKPEDNAVYYCAAVGPWWFPEYDYWGQGTQVTVSS	low polyreactivity
QFQLVESGGGLVQAGVSLRLSCAASGRIFSLYAMGWYRQAPGKERELVAAISYSGGSTYADSVKGRFTFSRDNAKNTVFLQMNSLKPEDTAVYYCAAEEYLAYAQFDYWGQGTQVTVSS	low polyreactivity
QFQLVESGGGLVQAGVSLRLSCAASGSIIKYYAMGWYRQAPGKERELVATINWNGGSTYYADSVKGRFTISRDNAKNTVYLQMNSLKPEDTAVYYCAAGYRGSYYHSHYEYLGQGTQVTVSS	high polyreactivity
QFQLVESGGGVVQAPGSLRLSSAASGSLFTVYAMGWYRQAPGKERELVAAISYGGGSTYYADSVKGRFTISRDTAKNTVYLQMNSLKQEDTAVYYCAADPYYSYGYYHAHGRDVGYWGQGTQVTVSS	low polyreactivity
QFQLVESGRGLVQAGGSLRLSCAASGSTILYYAMGWYRQAPGTERELVAAISSSDGSTYYADSVKGRFTISRDNAKYTVYLQMNSLKPEDTAVYYCNADFYWGYNYWGQGTQVTVSS	high polyreactivity
QFQLVESVGGLVQAGGSLRLSCAASGRTFVDYDMGCYRPAPGKERELVAAIRRGGSTTYEDSVKGRFTISRDNAKNTVYLQMNSLKPEDTAVYYCATDNTYGSDYWGQGTQVTVSW	high polyreactivity
QFQLVESVGGLVQAGGSLRLSLASSGSIFGPNTMGWYRQAPGKERELVAAIRGGGSTNYADSVKGRFTISRDNAKNTVYLQMNSLKPEDTAVYYCNATWNLFPGFLDRYDYWGQGTQVTVSS	low polyreactivity
QFQLVETVGGLVQAGGSLRLSCAASGFTYKSYAMGWYCQAPVKERELVASISRRGGSTYYADSVKGRFTISRDNAKNNVYLQMNSLKPEDTAVYYCNKYFRYRGDYDYWGQGTQVTVSS	high polyreactivity
QGHLDESGGGIVQAGGSLRLSCAASGITVVTYAMGWYRQAPGKERELVAAISRSGGRTYYADSVKGRFTISRDNAKNTVYLLMNSLKPEDTAVYYCAAERKNKYDYWGQGTQVTVSS	high polyreactivity
QGHREESGGGLVQAGGSLRLSCAASGSTFGIYALGWYIQEQGKERELVAAITWSGSSTYYADSVKGRFTISRDNAKNNVYLQINSLKPEDTAVYYCAAEDTLYEYYYWGQGTQVTVSS	high polyreactivity

Sequence	polyreactivity (PSR sort gate)
QGKLVESGGGLVQAGGSLRLTCPASGSIFRLNTMGWYRQAPGKEREFVAAISKGGTSTYYADSVKGRFTISRDNAKNTVYLQLTSLIPEDTAVYYCARKRYPSAPFQYDYWGQGTQVTVSS	high polyreactivity
QGQLEESGGGLFQAGGSLRLSCAASGRIFLYNGMGWYRQAPGKERELVAGITTGGNTNYADSVKGRFTISRDNAKNTVYLQMNSLKPEDTAVYYCAAEVIVYGWSPDYDYWGQGTQVTVSS	low polyreactivity
QGQLGESGGGLVQAGGSLRLSCAASGIIFTWYVMGWYRQAPGKERELVAAISASGASTYYADSVKGRFTISRDNAKNTVYLQMHSLNPEDPAVNYCNRYPTDGRTSYVTYYYWGQGTQVTVSS	high polyreactivity
QGQLGEYGGGLVQAGGSLRLSCAAYGRTVYYYAMGWYRQEPGKDREFVAGITATGSSTYYADSVKGRFTISRDNAKNTVYLQMNSLKPEDTAVYFCAADRYTTYSGQWSYPYDYWGQGTQVTVSS	low polyreactivity
QGQLQESGGGLVQAAGSLRMSCAASGTIFSEANMGWYRQAPGQVRELVATIGQGSTTNYADSVKGRFTISRDNAKNTVYLQMISLKPEETGVYYCAVVTVDPVGFVYWGQGTQVTVSS	low polyreactivity
QGQLVESAGGLGQAGGSLRLSCAASGRTLGRYVMGWYRQGPGQVRELVAAISARTGSTYYADSVKGRFTISRDNAKNTVYLQMNSLKPEDTAVYYCATKFSSYDTRVSYDYWGQGTQVTVSS	low polyreactivity
QGQLVESAGGLVQAAGSLRLSCAASGITFHYYAMGWYRQAPGKERELVAAIDGSDTDTYYADSVKGRFTISRDNAKNTVYLQMNSLKQEDTAVYYCAAEYTYAALARNDDYWGQCTQVTVSS	high polyreactivity
QGQLVESAGGLVQAGGSLRLSCAASGSTFDYYTIGWYRQAPGKERELVAAISSSGGSTYYADSVKGRFTISRANAKNTVYLQMNSLKPVDTAVYYCAAKWDWGYGRGFQYGFNYWGQGTQVTVSS	low polyreactivity
QGQLVESCGGLVQAGGSLLLSCAASGRIFRSYAMGGYRPAPGKERELVASMSTGGSTNYADSVKGRFTFSRDTAKNSGYLQKNRLKPEDTAVYYCAAGPYYKYWGQRYNYWGQGTQVTVSS	high polyreactivity
QGQLVESGGALVQAGGTLRLSCAASGIIFSGNGMGWYRQAPGNVRELVAAITAGAGTNYADSVKGRFTISRDNAKNSVYLQMHSLKPEDPGVYYCAVDGRSVPAWWPRFDYWGQGTQVTVSS	low polyreactivity
QGQLVESGGCLVQAGGSLRLSCAASGIIFWSYAMGWYRQAPGKERELVAAISRRGGSTSYADSVKGRFTISRDNAKTTVYLQMNSLKPEDTAVYYCAADRYFNPKSYSTEFDYWGQGTQVTVSS	high polyreactivity
QGQLVESGGGFVQAGGSLRLSCDASGNIFSANAMGWYRQAPWKEREFVAAISSTGGSTYYADSVKGRFTISRDNEMNTLYLQMNCLKPEDTAVYYCAAYIRRYFHYDYWRQGTQVTVSS	high polyreactivity
QGQLVESGGGIVQAGGSLRLSCAASGFNFWQYAMGLYRQAPGKERELVAAITSSGTSTYYADSVKGLFTISRDNAKNTVYLQMNSLKPEDTAVYSCAADLGYYDLYYWGQGTQVTVSS	low polyreactivity
QGQLVESGGGLDQAGVSLRLSCAASGFIFSFDNAMGWYRQAPGTERELVAAISSGTTTHYADSVKGRFTISRDNAKNTVYLQMNSLKPEDSAVYDCAADSVKQVRYGNVGHDDWGQGTQVTVSS	low polyreactivity
QGQLVESGGGLVHAGGRLRLSCAASGSTFTTYAMGWYRQAPGTERELVAAISTNGGRTFYADSVKGRFTISRDNAKTTFYLQMNSLKTEDTAVYYCAAQYGLYAPGYYYWGHGTQVTVSS	low polyreactivity
QGQLVESGGGLVQAGGRLRLSCAASGYNFGSYAMGWYRQAPGKERELVAAISGGGSTNYADSVKGRFTISRDNAKNTVYLQMHSLKPEDTAVYYCAAYPYLYPLRFEEYDHWGQGTQVTVSS	low polyreactivity

From the nanobody polyreactivity screen of Harvey et al. (2022)
